Test results from publication doi:10.1101/2024.01.20.576400 (bioRxiv, 2024).

Target: T1, Pwl2 without the signal peptide (residues 22-145) (Magnaporthe oryzae, UniProt G5EI71 22-145)
T1 sequence: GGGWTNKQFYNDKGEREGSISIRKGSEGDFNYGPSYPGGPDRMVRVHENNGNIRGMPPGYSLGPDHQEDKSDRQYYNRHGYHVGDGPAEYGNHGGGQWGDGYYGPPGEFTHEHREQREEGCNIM
Test: ITC

B1: HMA domain of OsHIPP43 (residues 26-101) (domain or fragment)
chain: RPLQTVNIKVKMDCEGCERRVKNAVKSMRGVTSVAVNPKQSRCTVTGYVEASKVLERVKSTGKAAEMWPYVPYTMT
Kd: 191 nM | dH: -67.6 kcal/mol
